Test results reported in publication PMC5510004, “Recruitment and positioning determine the specific role of the XPF‐ERCC1 endonuclease in interstrand crosslink repair”.

Key:
[1] = biological target: T1, XPF L219R;ERCC1 wild type (hsERCC1) (Xenopus laevis;Homo sapiens?, UniProt A0A8J0PXV9;P07992 1-897;1-297, L219R|); assay: fluorescence anisotropy; 2 mM Ca2+; comparable to wild type; 25 mM Hepes pH 8.0, 15% glycerol, 0.1 mg/ml BSA, 2 mM CaCl2, 10 nM DNA, 1 h at room temperature; conditions: protein: recombinant;recombinant; tags: FLAG;His; copies: 1;1; label: 5'-FAM on F1; three strands 1:1:1
T1 sequence 1: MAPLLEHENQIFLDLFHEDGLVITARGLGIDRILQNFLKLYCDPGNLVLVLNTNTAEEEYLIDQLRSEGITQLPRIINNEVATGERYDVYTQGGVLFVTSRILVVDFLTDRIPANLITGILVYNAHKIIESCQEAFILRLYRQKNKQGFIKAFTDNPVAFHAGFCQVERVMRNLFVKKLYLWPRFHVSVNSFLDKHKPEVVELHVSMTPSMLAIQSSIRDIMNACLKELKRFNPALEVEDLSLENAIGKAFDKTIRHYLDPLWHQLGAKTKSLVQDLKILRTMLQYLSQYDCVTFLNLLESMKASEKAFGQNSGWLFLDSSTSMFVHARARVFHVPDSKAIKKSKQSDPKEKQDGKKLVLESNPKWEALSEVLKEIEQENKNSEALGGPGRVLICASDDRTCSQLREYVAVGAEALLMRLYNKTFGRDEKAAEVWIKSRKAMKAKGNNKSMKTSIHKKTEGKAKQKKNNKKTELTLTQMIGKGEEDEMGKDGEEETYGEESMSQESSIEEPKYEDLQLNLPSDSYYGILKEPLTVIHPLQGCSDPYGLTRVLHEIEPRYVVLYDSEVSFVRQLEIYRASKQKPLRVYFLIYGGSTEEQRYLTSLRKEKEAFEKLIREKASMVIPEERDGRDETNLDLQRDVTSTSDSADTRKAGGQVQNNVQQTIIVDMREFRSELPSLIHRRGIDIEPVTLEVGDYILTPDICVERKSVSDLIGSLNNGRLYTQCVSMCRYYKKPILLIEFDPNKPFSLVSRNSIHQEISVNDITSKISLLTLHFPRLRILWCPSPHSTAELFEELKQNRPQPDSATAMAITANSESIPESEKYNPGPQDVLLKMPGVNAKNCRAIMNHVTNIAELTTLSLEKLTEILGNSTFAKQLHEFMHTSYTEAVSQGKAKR
T1 sequence 2: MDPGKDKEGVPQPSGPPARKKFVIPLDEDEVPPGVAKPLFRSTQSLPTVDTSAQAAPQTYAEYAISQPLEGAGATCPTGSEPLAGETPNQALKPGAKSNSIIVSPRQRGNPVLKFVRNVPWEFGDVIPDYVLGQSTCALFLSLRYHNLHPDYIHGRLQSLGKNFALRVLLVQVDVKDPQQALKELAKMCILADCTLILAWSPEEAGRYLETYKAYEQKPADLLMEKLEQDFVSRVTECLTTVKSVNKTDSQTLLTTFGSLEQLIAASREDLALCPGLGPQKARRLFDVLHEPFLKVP

[2] = biological target: T2, XPF C225R;ERCC1 wild type (hsERCC1) (Xenopus laevis;Homo sapiens?, UniProt A0A8J0PXV9;P07992 1-897;1-297, C225R|); assay: as above; conditions: protein: recombinant;recombinant; tags: FLAG;His; copies: 1;1; label: 5'-FAM on F1; three strands 1:1:1
T2 sequence 1: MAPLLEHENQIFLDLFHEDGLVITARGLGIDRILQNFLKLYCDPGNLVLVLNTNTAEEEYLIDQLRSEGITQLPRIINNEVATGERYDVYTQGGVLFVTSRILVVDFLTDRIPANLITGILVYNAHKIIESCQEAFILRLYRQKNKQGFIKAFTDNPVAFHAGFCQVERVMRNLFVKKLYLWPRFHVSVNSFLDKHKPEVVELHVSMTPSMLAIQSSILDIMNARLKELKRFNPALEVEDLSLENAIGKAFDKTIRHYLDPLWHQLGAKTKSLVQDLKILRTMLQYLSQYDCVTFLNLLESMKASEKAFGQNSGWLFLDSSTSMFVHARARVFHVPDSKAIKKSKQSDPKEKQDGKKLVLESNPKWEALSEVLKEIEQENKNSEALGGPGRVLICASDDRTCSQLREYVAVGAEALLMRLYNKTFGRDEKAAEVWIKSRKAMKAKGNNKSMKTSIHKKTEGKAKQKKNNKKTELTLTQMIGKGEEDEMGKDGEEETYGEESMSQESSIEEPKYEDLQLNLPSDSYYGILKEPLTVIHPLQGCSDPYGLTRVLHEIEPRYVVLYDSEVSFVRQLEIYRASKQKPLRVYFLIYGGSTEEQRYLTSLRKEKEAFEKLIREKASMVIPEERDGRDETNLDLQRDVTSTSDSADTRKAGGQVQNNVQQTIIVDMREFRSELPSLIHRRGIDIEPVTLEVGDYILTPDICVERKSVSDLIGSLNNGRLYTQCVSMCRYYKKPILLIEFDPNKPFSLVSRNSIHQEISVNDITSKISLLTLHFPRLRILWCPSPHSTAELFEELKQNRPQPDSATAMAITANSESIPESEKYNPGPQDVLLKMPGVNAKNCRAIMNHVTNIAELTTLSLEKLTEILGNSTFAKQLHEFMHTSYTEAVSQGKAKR
T2 sequence 2: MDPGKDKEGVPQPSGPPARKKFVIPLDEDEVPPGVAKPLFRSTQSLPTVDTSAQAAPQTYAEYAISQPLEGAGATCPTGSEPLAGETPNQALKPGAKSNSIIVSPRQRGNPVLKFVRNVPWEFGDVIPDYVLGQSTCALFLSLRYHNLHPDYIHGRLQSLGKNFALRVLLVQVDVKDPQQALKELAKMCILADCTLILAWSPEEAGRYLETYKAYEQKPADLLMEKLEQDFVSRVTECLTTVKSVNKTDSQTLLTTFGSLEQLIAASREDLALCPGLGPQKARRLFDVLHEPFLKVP

B1: 3' flap DNA substrate (F1+F2+F3) (dsDNA)
DNA 1: CGCGATGCGGATCCAA
DNA 2: CCTAGACTTAAGAGGCCAGACTTGGATCCGCATCGC
DNA 3: GGCCTCTTAAGTCTAGG
B1: binds [1]; binds [2].
